Test results from patent US20210147563A1 (GENEUIN TECH, published 2021).

How the values were obtained:
[1] = target: T1, DR4 expressed on the cell surface of cancer cells (HeLa, HCT-116) (human) (UniProt O00220); assay: cell-based or functional assay
T1 sequence (looked up): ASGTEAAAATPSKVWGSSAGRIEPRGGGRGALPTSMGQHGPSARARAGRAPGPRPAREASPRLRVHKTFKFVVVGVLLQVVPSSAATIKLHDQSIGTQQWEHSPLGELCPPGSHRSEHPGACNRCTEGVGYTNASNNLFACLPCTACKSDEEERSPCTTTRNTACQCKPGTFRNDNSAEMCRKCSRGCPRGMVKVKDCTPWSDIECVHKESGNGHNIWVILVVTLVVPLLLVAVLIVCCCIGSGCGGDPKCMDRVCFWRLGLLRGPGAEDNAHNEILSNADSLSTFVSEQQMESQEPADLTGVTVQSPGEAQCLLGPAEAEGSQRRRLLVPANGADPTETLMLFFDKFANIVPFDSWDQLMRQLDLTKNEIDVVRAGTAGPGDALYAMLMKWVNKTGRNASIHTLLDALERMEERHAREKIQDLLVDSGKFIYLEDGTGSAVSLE

[2] = target: T2, DR4 expressed on the cell surface of cancer cells (HeLa, HCT-116) (human, UniProt O00220 24-468); assay: inferred from apoptosis (MTT) assay on DR4-expressing HeLa and HCT-116 cells against DR4-negative HEK293 cells; no direct binding assay
T2 construct: whole, on cells; also called death receptor 4; DR4 trimer
T2 sequence (looked up): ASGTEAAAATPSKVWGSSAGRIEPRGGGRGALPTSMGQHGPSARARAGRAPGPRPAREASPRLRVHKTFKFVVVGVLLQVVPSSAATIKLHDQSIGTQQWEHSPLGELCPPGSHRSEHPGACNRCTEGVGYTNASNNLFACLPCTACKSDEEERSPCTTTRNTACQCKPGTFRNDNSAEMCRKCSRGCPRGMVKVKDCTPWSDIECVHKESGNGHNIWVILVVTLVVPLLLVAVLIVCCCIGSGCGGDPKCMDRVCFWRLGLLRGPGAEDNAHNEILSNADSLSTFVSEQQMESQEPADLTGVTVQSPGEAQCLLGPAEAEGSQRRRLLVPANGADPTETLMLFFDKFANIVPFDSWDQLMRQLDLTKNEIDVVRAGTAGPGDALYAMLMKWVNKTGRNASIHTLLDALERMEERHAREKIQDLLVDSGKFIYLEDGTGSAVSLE
Experimental: To this end, apoptosis-inducing effects of secretory humanized DR4 scFv antibody recombinant protein were analyzed using HeLa cells, a cervical cancer cell line expressing DR4 on the cell surface, and HCT-116 cells, a colon cancer cell line. […] Each of these three cells was inoculated in a culture dish and cultured overnight, and then the secretory humanized DR4 scFv antibody recombinant protein was added to the culture medium, and the degree of death of the cells during culturing was determined by MTT method (Cyto X™ Cell viability assay kit, LPS solution, Korea).

B1: humanized DR4 scFv chimeric antigen receptor (CAR) (protein, part only; not given: hinge, transmembrane and signaling domains, not shown: a dimerising Fc or GST; small tags and cut ends)
chain, part: EVQLVESGGGLVQPGGSLRLSCSASGFTFSSYSMQWVRQAPGKGLEYVAGIRSDGRYTNYGAAVKGRATISRDNSKNTVYLQMNSLRAEDTAVYYCAKGAYGYCGSTCAPYLGQIDAWGQGTLVTVSSGSTSGSGKPGSGEGSTKGSYELTQPPSVSVSPGQTVRITCSGGRYTYGWFQQKPGQAPVTVIYGNDKRPSNIPSRFSGSTSGSTVTLTISGVQAEDEADYYCGGADFSAGLFGGGTKLTVL
[1]
  cytotoxicity of CAR expressing lymphocytes on HeLa cells against HEK293 cells (CellTox Green fluorescence, effector:target 10:1, 3 days): 2 to 3 times

B2: secretory humanized DR4 scFv antibody recombinant protein (scFv)
scFv: EVQLVESGGGLVQPGGSLRLSCSASGFTFSSYSMQWVRQAPGKGLEYVAGIRSDGRYTNYGAAVKGRATISRDNSKNTVYLQMNSLRAEDTAVYYCAKGAYGYCGSTCAPYLGQIDAWGQGTLVTVSSGSTSGSGKPGSGEGSTKGSYELTQPPSVSVSPGQTVRITCSGGRYTYGWFQQKPGQAPVTVIYGNDKRPSNIPSRFSGSTSGSTVTLTISGVQAEDEADYYCGGADFSAGLFGGGTKLTVL
notes: Secreted from HEK293 cells transfected with pCMVFL-srkDR4 and purified through the His tag; no cleavage site is stated; also called secretory (soluble form) humanized DR4 scFv antibody fragment recombinant protein; humanized anti-DR4 scFv; not shown: Flag tag; IgG3 hinge; isoleucine zipper (ILZ) peptide; His6 tag
[2]
  binding result: binds
